Reference: patent US20190336574A1 (TRUSTEES OF PRINCETON UNIVERSITY, published 2019)
Substitutions are numbered along the chain they refer to.

How the values were obtained:
[1] = target: T1, HA-SND1 F250A, full-length human (human, UniProt Q7KZF4 1-910); test: co-IP (anti-Myc) from HEK293T lysates, western blot
T1 construct: Full-length, HA-tagged
T1 sequence: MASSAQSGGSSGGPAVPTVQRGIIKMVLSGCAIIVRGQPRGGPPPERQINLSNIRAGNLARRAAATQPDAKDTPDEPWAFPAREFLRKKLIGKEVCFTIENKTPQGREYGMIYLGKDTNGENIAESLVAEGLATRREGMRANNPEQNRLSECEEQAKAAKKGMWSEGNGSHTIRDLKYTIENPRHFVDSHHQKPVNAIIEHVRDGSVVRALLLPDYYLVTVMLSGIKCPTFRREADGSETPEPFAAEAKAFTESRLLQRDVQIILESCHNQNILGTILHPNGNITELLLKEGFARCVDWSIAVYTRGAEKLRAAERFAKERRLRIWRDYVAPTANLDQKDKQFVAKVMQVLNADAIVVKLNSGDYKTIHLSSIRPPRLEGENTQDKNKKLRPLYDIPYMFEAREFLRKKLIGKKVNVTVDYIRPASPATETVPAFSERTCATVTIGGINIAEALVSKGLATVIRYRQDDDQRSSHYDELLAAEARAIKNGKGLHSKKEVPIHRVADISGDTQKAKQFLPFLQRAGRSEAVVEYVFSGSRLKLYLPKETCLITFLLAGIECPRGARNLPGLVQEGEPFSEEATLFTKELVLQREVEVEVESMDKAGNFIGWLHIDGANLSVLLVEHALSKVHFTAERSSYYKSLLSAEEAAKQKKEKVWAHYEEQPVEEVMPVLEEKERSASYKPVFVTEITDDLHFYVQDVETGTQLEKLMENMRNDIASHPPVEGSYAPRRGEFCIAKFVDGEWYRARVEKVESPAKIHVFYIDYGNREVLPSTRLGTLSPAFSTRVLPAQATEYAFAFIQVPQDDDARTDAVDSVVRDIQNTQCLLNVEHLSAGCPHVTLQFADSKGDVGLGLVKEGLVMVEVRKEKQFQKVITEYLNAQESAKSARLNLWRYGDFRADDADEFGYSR

[2] = target: T2, HA-SND1 R255E, full-length human (human, UniProt Q7KZF4 1-910); test: as above
T2 construct: Full-length, HA-tagged
T2 sequence: T1 sequence with A250F, R255E

B1: Myc-MTDH, full-length human, wild type (other)
chain: MAARSWQDELAQQAEEGSARLREMLSVGLGFLRTELGLDLGLEPKRYPGWVILVGTGALGLLLLFLLGYGWAAACAGSRKKRRSPPRKREEAAAVPAAAPDDLALLKNLRSEEQKKKNRKKLSEKPKPNGRTVEVAEGEAVRTPQSVTAKQPPEIDKKNEKSKKNKKKSKSDAKAVQNSSRHDGKEVDEGAWETKISHREKRQQRKRDKVLTDSGSLDSTIPGIENTITVTTEQLTTASFPVGSKKNKGDSHLNVQVSNFKSGKGDSTLQVSSGLNENLTVNGGGWNEKSVKLSSQISAGEEKWNSVSPASAGKRKAEPSAWSQDTGDANTNGKDWGRSWSDRSIFSGIGSTAEPVSQSTTSDYQWDVSRNQPYIDDEWSGLNGLSSADPNSDWNAPAEEWGNWVDEERASLLKSQEPIPDDQKVSDDDKEKGEGALPTGKSKKKKKKKKKQGEDNSTAQDTEELEKEIREDLPVNTSKTRPKQEKAFSLKTISTSDPAEVLVKNSQPIKTLPPATSTEPSVILSKSDSDKSSSQVPPILQETDKSKSNTKQNSVPPSQTKSETSWESPKQIKKKKKARRET
notes: Full-length, Myc-tagged; Expressed in HEK293T cells, tested in lysate; also called Myc-tagged MTDH; WT Myc-MTDH
- binding result [1]: no binding
- binding result [2]: no binding
